The results in this text go back to patent US20250011433A1 (GLIKNIK, published 2025).

The target of assay [1] is C1q (UniProt P02745 23-245; P02746 28-253; P02747 29-245). As to the kind of experiment: cell-based or functional assay.
For assay [2], the target named is T1, FcγRIIb (UniProt P31994 46-217, limits assumed).
T1 sequence (looked up): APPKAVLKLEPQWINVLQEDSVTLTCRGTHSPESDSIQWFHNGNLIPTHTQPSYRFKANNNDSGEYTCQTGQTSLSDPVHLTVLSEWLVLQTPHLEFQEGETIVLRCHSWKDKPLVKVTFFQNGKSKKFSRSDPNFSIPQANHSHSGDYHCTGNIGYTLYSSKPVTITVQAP
As to the kind of experiment: BLI (Octet). As for the experimental part:
(§1) Binding of complement-preferential stradomers or parent stradomer G045c to FcγRI, FcγRIIb, FcγRIIIa, FcγRIIa, or FcRn was assessed. RU values of dissociation were measured by biolayer interferometry using a ForteBio Octet instrument. His-tagged receptor proteins were bound to the sensor tip in 1× kinetic analysis buffer from ForteBio after which the on rate of the receptor/protein was measured by transferring the sensor tip to a 1× kinetics buffer containing the purified stradomer of choice. Off rate was measured by transferring the sensor tip to a 1× kinetics buffer, and RU value was calculated from the measured maximum binding using the ForteBio software. Biolayer interferometry detects the binding between a ligand immobilized on the biosensor tip surface and an analyte in solution. When binding occurs it produces an increase in optical thickness at the biosensor tip, which results in a wavelength shift (detected as a response unit of “RU”). The maximum binding level (RU max) is the maximum possible amount of sample binding at equilibrium that saturates the amount of ligand on the sensor surface. The RU 300 is the residual sample binding after 300 seconds of dissociation and is useful to characterize the rate of dissociation of the test article from the test ligand.
(§2) For each stradomer in Tables 5-9, the level of canonical FcγR binding, complement C1q binding, and CDC inhibition were determined according to the methods described in Example 1.
Background: BLI is a label-free optical method that tracks binding on a fibre tip over time.

In assay [3] the target is T2, FcγRI (UniProt P12314 16-288).
T2 construct: also called CD64
T2 sequence (P12314 16-288 limits assumed): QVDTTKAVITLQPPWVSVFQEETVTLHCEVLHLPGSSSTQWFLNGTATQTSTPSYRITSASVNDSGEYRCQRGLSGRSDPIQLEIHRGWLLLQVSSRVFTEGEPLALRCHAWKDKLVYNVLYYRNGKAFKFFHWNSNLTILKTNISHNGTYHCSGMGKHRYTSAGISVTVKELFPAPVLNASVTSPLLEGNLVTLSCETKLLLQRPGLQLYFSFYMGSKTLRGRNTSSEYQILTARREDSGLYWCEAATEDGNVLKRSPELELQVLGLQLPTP
Description: BLI (Octet). As for the experimental part: as §1, §2

Chain of C1q (P02745 23-245 limits assumed, chain 1 of 3): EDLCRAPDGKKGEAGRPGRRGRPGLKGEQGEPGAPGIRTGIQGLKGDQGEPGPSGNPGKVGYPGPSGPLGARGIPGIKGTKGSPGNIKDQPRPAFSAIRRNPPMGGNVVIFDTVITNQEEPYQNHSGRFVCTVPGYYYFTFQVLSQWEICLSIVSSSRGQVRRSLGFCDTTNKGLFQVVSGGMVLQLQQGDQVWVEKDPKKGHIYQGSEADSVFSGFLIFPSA
Chain of C1q (P02746 28-253 limits assumed, chain 2 of 3): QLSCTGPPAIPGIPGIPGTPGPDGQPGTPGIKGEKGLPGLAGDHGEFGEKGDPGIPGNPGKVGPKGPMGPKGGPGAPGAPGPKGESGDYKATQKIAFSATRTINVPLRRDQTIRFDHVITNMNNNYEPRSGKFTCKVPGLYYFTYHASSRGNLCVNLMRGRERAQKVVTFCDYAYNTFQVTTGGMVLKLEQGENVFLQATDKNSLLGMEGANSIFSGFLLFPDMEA
Chain of C1q (P02747 29-245 limits assumed, chain 3 of 3): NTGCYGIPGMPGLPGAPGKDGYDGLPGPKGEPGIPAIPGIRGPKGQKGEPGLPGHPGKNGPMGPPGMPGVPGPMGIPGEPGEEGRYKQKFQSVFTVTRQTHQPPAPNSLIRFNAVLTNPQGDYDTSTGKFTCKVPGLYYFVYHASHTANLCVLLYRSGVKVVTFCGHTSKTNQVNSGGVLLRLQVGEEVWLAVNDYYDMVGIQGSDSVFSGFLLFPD

B1: G1088 (Fc fusion)
chain: EPKSCDKTHTCPPCPAPPLLQGPSVFLFPPKPKDTLMISRTPEVTCVVVDVSFEDPEVKFNWYVDGVEVHNAKTKPREEQYNSTYRVVSVLTVLHQDWLNGKEYKCKVTNKALPAPIEKTISKAKGQPREPQVYTLPPSRDELTKNQVSLTCLVKGFYPSDIAVEWESNGQPENNYKTTPPVLDSDGSFFLYSKLTVDKSRWQQGNVFSCSVMHEALHNHYTQKSLSLSPGKERKCCVECPPCP
notes: G045c background, E233P/G236Q/H268F/S324T; leader 1-20 cleaved
Consider B1, for which the “CDC Inhibition (EC50, µg/mL)” value in assay [1] came to 5 µg/mL. For the same molecule, the binding result in assay [2] and in assay [3] was “binds” in each case.

B2: G1094 (Fc fusion)
chain: EPKSCDKTHTCPPCPAPELLGGPSVFLFPPKPKDTLMISRTPEVTCVVVDVQFEDPEVKFNWYVDGVEVHNAKTKPREEQYNSAYRVVSVLTVLHQDWLNGKEYKCKVTNKALPAPIEKTISKAKGQPREPQVYTLPPSRDELTKNQVSLTCLVKGFYPSDIAVEWESNGQPENNYKTTPPVLDSDGSFFLYSKLTVDKSRWQQGNVFSCSVMHEALHNHYTQKSLSLSPGKERKCCVECPPCP
notes: G045c background, S267Q/H268F/S324T/T299A; leader 1-20 cleaved
In the case of B2, in assay [1], the “CDC Inhibition (EC50, µg/mL)” value turned out to be 12.5 µg/mL. The binding result in assay [2] and in assay [3] was “binds” in each case.

B3: G1102 (Fc fusion)
chain: EPKSCDKTHTCPPCPAPPLLGGPSVFLFPPKPKDTLMISRTPEVTCVVVDVQFEDPEVKFNWYVDGVEVHNAKTKPREEQYNSTYRVVSVLTVLHQDWLNGKEYKCKVTNKALPAPIEKTISKAKGQPREPQVYTLPPSRDELTKNQVSLTCLVKGFYPSDIAVEWESNGQPENNYKTTPPVLDSDGSFFLYSKLTVDKSRWQQGNVFSCSVMHEALHNHYTQKSLSLSPGKERKCCVECPPCP
notes: G045c background, E233P/S267Q/H268F/S324T; leader 1-20 cleaved
With B3, the “CDC Inhibition (EC50, µg/mL)” value in assay [1] came out at 7.5 µg/mL. The binding result in assay [2] and in assay [3] was “binds” throughout.

B4: G1101 (Fc fusion)
chain: EPKSCDKTHTCPPCPAPPLLGGPSVFLFPPKPKDTLMISRTPEVTCVVVDVDFEDPEVKFNWYVDGVEVHNAKTKPREEQYNSTYRVVSVLTVLHQDWLNGKEYKCKVTNKALPAPIEKTISKAKGQPREPQVYTLPPSRDELTKNQVSLTCLVKGFYPSDIAVEWESNGQPENNYKTTPPVLDSDGSFFLYSKLTVDKSRWQQGNVFSCSVMHEALHNHYTQKSLSLSPGKERKCCVECPPCP
notes: G045c background, E233P/S267D/H268F/S324T; leader 1-20 cleaved
As for B4, the “CDC Inhibition (EC50, µg/mL)” value in assay [1] is 5 µg/mL. The binding result in assay [2] and in assay [3] was “binds” in each case.

B5: G1095 (Fc fusion)
chain: EPKSCDKTHTCPPCPAPELLGGPSVFLFPPKPKDTLMISRTPEVTCVVVDVNFEDPEVKFNWYVDGVEVHNAKTKPREEQYNSAYRVVSVLTVLHQDWLNGKEYKCKVTNKALPAPIEKTISKAKGQPREPQVYTLPPSRDELTKNQVSLTCLVKGFYPSDIAVEWESNGQPENNYKTTPPVLDSDGSFFLYSKLTVDKSRWQQGNVFSCSVMHEALHNHYTQKSLSLSPGKERKCCVECPPCP
notes: G045c background, S267N/H268F/S324T/T299A; leader 1-20 cleaved
In the case of B5, the “CDC Inhibition (EC50, µg/mL)” value in assay [1] amounted to 15 µg/mL. For the same molecule, the binding result in assay [2] and in assay [3] was “binds” each time.

B6: G1103 (Fc fusion)
chain: EPKSCDKTHTCPPCPAPPLLEGPSVFLFPPKPKDTLMISRTPEVTCVVVDVSFEDPEVKFNWYVDGVEVHNAKTKPREEQYNSTYRVVSVLTVLHQDWLNGKEYKCKVTNKALPAPIEKTISKAKGQPREPQVYTLPPSRDELTKNQVSLTCLVKGFYPSDIAVEWESNGQPENNYKTTPPVLDSDGSFFLYSKLTVDKSRWQQGNVFSCSVMHEALHNHYTQKSLSLSPGKERKCCVECPPCP
notes: G045c background, E233P/G236E/H268F/S324T; leader 1-20 cleaved
With B6, the “CDC Inhibition (EC50, µg/mL)” value in assay [1] amounted to 5 µg/mL. For the same molecule, the binding result in assay [2] and in assay [3] was “binds” each time.
